Target: T1, SARS-CoV-2 spike receptor-binding domain (RBD), original Wuhan isolate (SARS-CoV-2, Wuhan isolate, UniProt P0DTC2)
T1 construct: not shown: His tag, C-terminal, kept
Assay: BLI
Conditions: both partners purified

B1: G32Q4 Fab (Fab, V domains shown)
VH: QVQLVESGGGVVQPGRSLRLSCAASGFTFSRYAMQWVRQAPGKGLEWVAVISYDGNNRYYADSVKGRFTISRDNSKNTLYLQMNSLRAEDTAVYYCARGPPGYYDSSGYYQTPEYFQHWGQGTLVTVSS
VL: QSVLTQPPSVSGAPGQRVTISCTGSSSNIGVGYDVHWYQQFPGTVPKLLIYGNSNRPSGVPDRFSGSKSGTSASLAITGLQAEDEADYYCQSYDSSLSGVVFGGGTKLTVL
Work on B1 yielded a koff of 0.0066 s⁻¹ and a kon of 1.2e+06 M⁻¹ s⁻¹.

Source: article PMC9097876 (Science Immunology, 2022)
